Laboratory results: article PMC8445599

Biological target: FLAG-RepoMan-Ubc9
Experiment: co-immunoprecipitation (IP anti-HA, immunoblot anti-FLAG, quantified with ImageJ)
Details: 293FT cells; lane 18; with CFP-SUMO2(R59E); ratio of SUMOylated to non-SUMOylated FLAG-RepoMan(WT)-Ubc9 co-precipitated with HA-lamin A; input ratio 0.99 (lane …)

## HA–lamin A (WT) (from UniProt P02545) V494E; V495E
  other: SUMOylated/non-SUMOylated: 0.31
